Reference: PMC1952073, “The N-Myc Down Regulated Gene1 (NDRG1) Is a Rab4a Effector Involved in Vesicular Recycling of E-Cadherin” (PLoS ONE, 2007)

Target: T1, recombinant flag-tagged NDRG1 purified from Drosophila S2 cells (human, UniProt Q92597-1 1-394)
T1 construct: NDRG1; The vector pMT/BiP/V5-His adds a BiP secretion signal (the protein was collected as secreted protein); also called NDRG1flag; NDRG1Flag; not shown: Flag, C-terminal, kept
Test: pull-down; NDRG1Flag bound to M2 agarose; 1 microgram of purified Rab4aGST loaded with 10 µM GTPγS (30 min, 37 °C) in 20 mM HEPES, 1 mM MgCl2, 1 mM DTT, 100 mM potassium acetate, incubated 1 h; Western blot
Settings: both partners purified

T1 sequence (Q92597 whole entry): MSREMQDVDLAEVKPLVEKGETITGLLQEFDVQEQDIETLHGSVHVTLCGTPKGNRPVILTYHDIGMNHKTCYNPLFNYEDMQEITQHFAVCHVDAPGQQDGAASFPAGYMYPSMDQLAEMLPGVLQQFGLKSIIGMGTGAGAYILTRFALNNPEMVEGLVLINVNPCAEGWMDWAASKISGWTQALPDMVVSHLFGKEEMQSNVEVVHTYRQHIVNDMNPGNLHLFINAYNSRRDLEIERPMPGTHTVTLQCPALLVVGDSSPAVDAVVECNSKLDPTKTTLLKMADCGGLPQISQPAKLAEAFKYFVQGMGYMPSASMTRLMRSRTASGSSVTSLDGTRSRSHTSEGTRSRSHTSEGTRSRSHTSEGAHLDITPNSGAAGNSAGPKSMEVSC

B1: Rab4a produced as a GST fusion protein (natural protein, UniProt P20338 1-218, looked up)
chain: MSQTAMSETYDFLFKFLVIGNAGTGKSCLLHQFIEKKFKDDSNHTIGVEFGSKIINVGGKYVKLQIWDTAGQERFRSVTRSYYRGAAGALLVYDITSRETYNALTNWLTDARMLASQNIVIILCGNKKDLDADREVTFLEASRFAQENELMFLETSALTGENVEEAFVQCARKILNKIESGELDPERMGSGIQYGDAALRQLRSPRRAQAPNAQECGC
notes: Rab4a amplified from a prostate cDNA library and cloned in PGEX2T; also called Rab4aGST; recombinant Rab4a; source: E. coli BL21 (DE3), purified (glutathione agarose)
binding result: binds
